Laboratory results reported in article PMC3654831 (Cell reports, 2012).
Residue numbers refer to the chain shown, from its start. In names and notes the source's numbering stands. Several values for one entry are separate records, joined by “and”; a condition that tells them apart may be missing. Equal values may be shown once.

T1: polyhistidine-tagged Get5-UBL-C (S. cerevisiae)
T1 sequence (Q12285 whole entry, looked up): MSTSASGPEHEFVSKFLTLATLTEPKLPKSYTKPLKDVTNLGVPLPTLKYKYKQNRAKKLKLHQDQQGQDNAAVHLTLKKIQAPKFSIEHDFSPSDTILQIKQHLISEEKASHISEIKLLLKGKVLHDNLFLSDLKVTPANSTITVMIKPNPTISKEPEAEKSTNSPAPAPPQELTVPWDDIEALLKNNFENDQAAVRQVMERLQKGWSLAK

T2: Get5 ubiquitin-like domain (Get5-UBL), wild type (S. cerevisiae, UniProt Q12285 74-151)
T2 sequence: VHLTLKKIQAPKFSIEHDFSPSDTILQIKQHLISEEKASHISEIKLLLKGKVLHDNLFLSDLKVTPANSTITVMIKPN

T3: polyhistidine-tagged Get5-UBL, wild type (S. cerevisiae, UniProt Q12285 74-151)
T3 sequence: T2 sequence

B1: Sgt2 N-terminal homodimerization domain (Sgt2-N), wild type (domain or fragment, S. cerevisiae)
chain: SASKEEIAALIVNYFSSIVEKKEISEDGADSLNVAMDCISEAFGFEREAVSGILGKSEFKGQHLADILNSA
B2: Sgt2-N D31A (domain or fragment, S. cerevisiae)
chain: B1 chain with D30A
B3: Sgt2-N C39S (domain or fragment, S. cerevisiae)
chain: B1 chain with C38S
B4: Sgt2-N V35A (domain or fragment, S. cerevisiae)
chain: B1 chain with V34A
B5: Sgt2-N D28A (domain or fragment, S. cerevisiae)
chain: B1 chain with D27A
B6: Sgt2-N C39V (domain or fragment, S. cerevisiae)
chain: B1 chain with C38V
B7: Get5-UBL L120A (domain or fragment, S. cerevisiae)
chain: T2 sequence with L47A

Assays:
[1] = biological target: T1, polyhistidine-tagged Get5-UBL-C (S. cerevisiae); test: SPR
[2] = biological target: T2, Get5 ubiquitin-like domain (Get5-UBL), …; test: NMR exchange spectroscopy
[3] = biological target: T2, Get5 ubiquitin-like domain (Get5-UBL), …; test: NMR exchange spectroscopy; remark: listed apart in the source
[4] = biological target: T3, polyhistidine-tagged Get5-UBL, wild type; test: SPR
solution NMR structure = biological target: the molecule itself; test: solution NMR structure
[5] = biological target: T2, Get5 ubiquitin-like domain (Get5-UBL), …; test: ITC
[6] = biological target: B1; test: ITC

Binder: B1
Kd [1]: 0.749 µM
kon [1]: 1.06e+07 M⁻¹ s⁻¹
koff [2]: 7.5 s⁻¹ and 5.7 s⁻¹
kon [3]: ~2e+08 M⁻¹ s⁻¹
Kd [4]: 3.78 µM
stoichiometry N (solution NMR structure): 2

Binder: B2
binding result [4]: binds

Binder: B3
fold lower affinity than wild type [5]: ~700 fold

Binder: B4
fold lower affinity than wild type [5]: > 100 fold

Binder: B5
binding result [4]: binds

Binder: B6
fold lower affinity than wild type [5]: 100 fold

Binder: B7
fold lower affinity than wild type [6]: 1000 fold
